# Experimental data published in IntAct's records for PubMed 31147388.
# B1: Protein pid-1 (Caenorhabditis elegans), Q19541 (parent)
# chain: MSAKREFSHITLASTPFKKRIDQNSLKTDSDIEKDTNIAHKCAERFNYNTNLHRKVTLSDRFELAALGYEMKAKPRTIIEKHNDCDEFHFIYRKEKKNDYGTGSPLSAGLSLSNPLPAGRGFLSPAIQNTSNQFTFSGSPRITPQKHTPVSANHKPARSIFDDIPSNIA
# partner: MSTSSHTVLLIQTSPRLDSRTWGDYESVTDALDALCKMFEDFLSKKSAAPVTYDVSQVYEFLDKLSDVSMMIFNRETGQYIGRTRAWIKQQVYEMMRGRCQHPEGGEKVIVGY
# B2: Protein tost-1 (Caenorhabditis elegans), Q18490 (parent)
# chain: MTTAIQYQVIPLADREHSNKVASILENKYKTATNKRITLNERFGVLEKGYTIQATEPETVKNDSDVFFVVHDRNLNSKKEFVENYLAKNPIVNSPEKVFEEEDKENAPTKKAVLKPSSTDEKKLTSSDIYIQEITRSILQSV
# partner: B1 partner
# Variants of: B1
# Settings: with erh2_caeel erh-2, Q20057
row,effect of a mutation on the interaction,Variant
1,decreasing interaction strength,MSAKREFSHITLASTPFKKRIDQNSLKTDSDIEKDTNIAHKCAERFNYNTNLHRKVTLSDCFELAALGYEMKAKPRTIIEKHNDCDEFHFIYRKEKKNDYGTGSPLSAGLSLSNPLPAGRGFLSPAIQNTSNQFTFSGSPRITPQKHTPVSANHKPARSIFDDIPSNIA [R61C]

# Variants of: B1
# Settings: with erh2_caeel erh-2, Q20057
# Remark: another data set of the same source
row,effect of a mutation on the interaction,Variant
1,disrupting interaction strength,MSAKREFSHITLASTPFKKRIDQNSLKTDSDIEKDTNIAHKCAERFNYNTNLHRKVTLSDCFELAALGYEMKAKPRTIIEKHNDCDEFHFIYRKEKKNDYGTGSPLSAGLSLSNPLPAGRGFLSPAIQNTSNQFTFSGSPRITPQKHTPVSANHKPARSIFDDIPSNIA [R61C]

# Variants of: B2
# Settings: with erh2_caeel erh-2, Q20057
row,effect of a mutation on the interaction,Variant
1,disrupting interaction strength,MTTAIQYQVIPLADREHSNKVASILENKYKTATNKRITLNECFGVLEKGYTIQATEPETVKNDSDVFFVVHDRNLNSKKEFVENYLAKNPIVNSPEKVFEEEDKENAPTKKAVLKPSSTDEKKLTSSDIYIQEITRSILQSV [R42C]
